Measured values: paper PMC9896449

Legend:
[1] = biological target: BiShAb0201 (ShAb02 VNAR - (GGGGS)5 - ShAb01 VNAR - human IgG1 Fc) (nurse shark (Ginglymostoma cirratum)); assay: BLI
[2] = biological target: ShAb01H02K (knob-in-hole heterodimer of ShAb01-Fc and ShAb02-Fc) (nurse shark (Ginglymostoma cirratum)); assay: BLI

“SARS-CoV-2 WA-1 spike receptor binding domain (RBD) (from UniProt P0DTC2 331-527) (domain or fragment)” was tested, and the Kd [1] was 1.07 nM, the koff [1] was 2.82e-05 s⁻¹ and the kon [1] was 26300 M⁻¹ s⁻¹. It also gave a Kd [2] of 0.57 nM, a koff [2] of 6.98e-05 s⁻¹ and a kon [2] of 122000 M⁻¹ s⁻¹.
